Source: the supplement of paper PMC6755084

B1: F1*; the commonest letter at each place (parent)
chain: GAGACCGCAACTGAAAAGTTGTTATCACTTGTCGTAAGACACTTTGGATGGGTTGAAGTTCTGCACGTAGAAGCAAAAGGC

Variants of: B1
Assay: fraction ligated after 30 min (ligated reads / total reads); higher = more ligase activity
Conditions: with F1*sub RNA substrate (template-directed ligation), 42 °C
Method in brief: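 Templates from an oligo pool were PCR-amplified, transcribed with T7 and gel-purified to give the ribozyme variants. Ligated and unligated products were separated on gel, reverse transcribed using barcoded primers, and read on a MiSeq. A quality filter of ≥20 was applied to core bases. Fraction ligated was taken as ligated reads as a share of all reads per variant.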

Variant	fraction ligated
C42G G55C	0.758
C42G G55T	0.809
T43A G47A	0.804
T43A G47T	0.643
T43A G47C	0.515
T43C A57T	0.79
T43C A57C	0.733
T43C A57G	0.785
T43G T49C	0.726
T43G T49A	0.76
T43G T49G	0.743
T45A T49G	0.0993
T45A T49A	0.0341
T45A T49C	0.0557
C42A A57C	0.797
C42A A57G	0.794
C42A A57T	0.848
C42A T49G	0.789
C42A T49A	0.797
C42A T49C	0.727
C42T G50A	0.634
C42T G50C	0.497
C42T G50T	0.808
C42T A57C	0.812

Variant	fraction ligated
C42T A57T	0.847
C42T A57G	0.812
T44A A48T	0.82
T44A A48G	0.808
T44A A48C	0.758
T45C G46A	0.127
T45C G46T	0.263
T45C G46C	0.268
T43G G50C	0.273
T43G G50A	0.311
T43G G50T	0.561
C42T G46C	0.813
C42T G46T	0.805
C42T G46A	0.835
C42A A56T	0.798
C42A A56G	0.781
C42A A56C	0.794
T44G G46A	0.818
T44G G46C	0.806
T44G G46T	0.805
C42A G55T	0.814
C42A G55C	0.746
C42A G55A	0.837
T45C G50T	0.0706

Variant	fraction ligated
T45C G50A	0.0234
T45C G50C	0.0165
T45C A56C	0.747
T45C A56G	0.569
T45C A56T	0.473
T44A T49C	0.737
T44A T49A	0.779
T44A T49G	0.785
C42T G47C	0.11
C42T G47A	0.823
C42T G47T	0.408
T45A G47C	0.217
T45A G47A	0.478
T45A G47T	0.205
T44G G55T	0.795
T44G G55A	0.842
T44G G55C	0.729
T45C A48C	0.112
T45C A48T	0.00623
T45C A48G	0.0929
T43G A48C	0.625
T43G A48T	0.668
T43G A48G	0.78
C42G A48G	0.821

Variant	fraction ligated
C42G A48T	0.792
C42G A48C	0.765
T44C T45C	0.747
T44C T45G	0.191
T44C T45A	0.768
C42A	0.84
C42T	0.856
C42G	0.854
C42A T44C	0.834
C42A T44A	0.855
C42A T44G	0.805
T43G T45C	0.319
T43G T45G	0.0141
T43G T45A	0.763
T45C G47C	0.31
T45C G47A	0.366
T45C G47T	0.379
C42T T44C	0.855
C42T T44G	0.833
C42T T44A	0.862
C42A G47C	0.695
C42A G47T	0.704
C42A G47A	0.832
T43A	0.855

Variant	fraction ligated
T43G	0.822
T43C	0.81
T44G G47A	0.305
T44G G47T	0.0521
T44G G47C	0.0306
T45C	0.74
T45G	0.385
T45A	0.787
T45C T49C	0.0485
T45C T49G	0.0625
T45C T49A	0.0409
T43A T49C	0.605
T43A T49G	0.797
T43A T49A	0.743
T44G A56T	0.809
T44G A56G	0.752
T44G A56C	0.775
C42G A57C	0.818
C42G A57T	0.834
C42G A57G	0.807
T43A A57C	0.792
T43A A57T	0.833
T43A A57G	0.793
T44A	0.849

Variant	fraction ligated
T44G	0.844
T44C	0.837
T45A G50A	0.0303
T45A G50C	0.0158
T45A G50T	0.0542
T43G G55A	0.801
T43G G55C	0.247
T43G G55T	0.765
C42G G50T	0.713
C42G G50C	0.27
C42G G50A	0.372
C42G A56C	0.801
C42G A56T	0.797
C42G A56G	0.792
T43C T44A	0.833
T43C T44G	0.836
T43C T44C	0.781
T43C A48C	0.723
T43C A48T	0.668
T43C A48G	0.764
T43C A56G	0.757
T43C A56T	0.755
T43C A56C	0.731
T44C G47A	0.772

Variant	fraction ligated
T44C G47T	0.152
T44C G47C	0.0629
C42A G50T	0.658
C42A G50A	0.345
C42A G50C	0.239
T43A G50A	0.267
T43A G50T	0.614
T43A G50C	0.153
C42A A48G	0.785
C42A A48C	0.761
C42A A48T	0.803
T43G T44C	0.809
T43G T44A	0.808
T43G T44G	0.809
T45A G46A	0.178
T45A G46T	0.403
T45A G46C	0.0374
T45A A57T	0.794
T45A A57G	0.752
T45A A57C	0.773
T44C T49C	0.494
T44C T49G	0.772
T44C T49A	0.737
